Laboratory results as given in patent US20250136708A1 (YEDA RESEARCH AND DEVELOPMENT, published 2025).

How the values were obtained:
[1] = biological target: T1, mouse ATP6V1B2 on the surface of senescent mouse lung fibroblasts (CCL-206) (mouse, UniProt P62814 1-511); assay: FACS, non-permeabilized senescent CCL-206 cells, antibody at 10 ug/ml
T1 construct: whole, on cells; Endogenous protein on mouse cells
Method: Surface binding was examined in non-permeabilized cells using FACS. FIG. 4A: antibody 2G05.
(§1) Control, growing IMR-90 or CCL-206 cells were seeded 24h prior to testing day. On testing day, the medium was aspirated, and cells were gently detached using warm TrypLE Express solution (Thermo Fisher Scientific) followed by the addition of cold FACS buffer (PBS/5% FBS). ATP6V1B2 antibodies were added to the tubes containing the cells and the tubes were incubated for 60-70 minutes at 4C and centrifuged. Antibodies 2G05, 2E11 and 4G06 were tested at 10 ug/ml. Commercial antibodies-LS-B13421 (LS Bio), ab200839 (Abcam), and SC-55544 (Santa Cruz) were used at 20 ug/ml. Two hundred fifty ul of secondary antibody (anti mouse Alexa 647, Jackson 115-605-146 diluted in FACS buffer 1:300) were added and the tubes were incubated for 40 minutes at 4 C. Following incubation, 600 ul FACS buffer supplemented with DAPI (diluted 1:20,000) were added to each tube and the tubes were centrifuged. Cell pellets were resuspended in 200 ul FACS buffer. The samples were analyzed using GUAVA Flow Cytometry analyzer. Data was analyzed using the FCSalyzer 0.9.18-alpha software. Duplicates and dead cells (DAPI positive cells) were excluded.

[2] = biological target: T2, human ATP6V1B2 on the surface of senescent human cells (IMR-90 lung fibroblasts, IPF lung fibroblasts, A549 … (human, UniProt P21281 1-511)); assay: FACS, non-permeabilized senescent IMR-90 cells, antibody at 10 ug/ml
T2 construct: whole, on cells; Endogenous protein on cells; also called surface ATP6V1B2; surface protein expressed in senescent human lung fibroblasts
T2 sequence (P21281 whole entry): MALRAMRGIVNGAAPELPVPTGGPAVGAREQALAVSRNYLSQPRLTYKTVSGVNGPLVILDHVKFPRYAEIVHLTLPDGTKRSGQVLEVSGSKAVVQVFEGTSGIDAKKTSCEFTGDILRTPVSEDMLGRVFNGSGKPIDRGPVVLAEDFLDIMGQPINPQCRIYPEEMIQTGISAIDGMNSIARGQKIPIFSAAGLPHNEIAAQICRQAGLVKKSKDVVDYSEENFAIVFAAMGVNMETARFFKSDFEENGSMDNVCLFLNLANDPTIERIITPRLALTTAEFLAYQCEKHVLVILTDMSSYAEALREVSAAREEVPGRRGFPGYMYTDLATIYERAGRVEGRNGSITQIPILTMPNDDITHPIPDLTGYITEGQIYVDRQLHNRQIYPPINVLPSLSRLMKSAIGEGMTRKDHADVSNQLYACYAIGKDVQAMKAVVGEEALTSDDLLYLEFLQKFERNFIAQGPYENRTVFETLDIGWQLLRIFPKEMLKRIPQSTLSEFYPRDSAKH
Method: as §1

T1 sequence (P62814 whole entry): as the sequence (P21281 whole entry) above, with A25M, V26A, R460K, A464T, F474Y counted along it

binding result [1]: binds
binding result [2]: binds
B1: anti-ATP6V1B2 antibody 2E11 (antibody, V domains shown)
VH: EVQLQQSGAELVKPGASAKMSCRAPGYTFTSYWITWVKQRPGQGLEWIGDIYPGSGSTNYNEKFKTKATLTVDTSSSTAYMQLSSLTSEDSAVYYCAELGTFDYWGQGTTLTVST
VL: DVVVTQTPLSLPVSLGDQASISCRSSQSLVHSNGNTYLHWYLQKPGQSPKLLIYKVSNRFSGVPDRFSGSGSGTDFTLKISRVEAEDLGVYFCSQSTHVPYTFGGGTKLEIK
notes: detection was with an anti-mouse secondary antibody
